Results published in patent US11781164B2, “Demethylation of reticuline and derivatives thereof with fungal cytochrome P450” (priority 2017, dated 2023).

How the values were obtained:
thebaine [1] = assay: Bioconversion of thebaine (N-demethylation to northebaine) by S. cerevisiae expressing cytochrome P450s and CPRs, LC-MS; conditions: for support of N-demethylase activity of P450_DN15259_c0_g1_i7_A by CPR (northebaine): 0.1 M potassium phosphate buffer pH 7, 72 h
oripavine = assay: Bioconversion of oripavine (N-demethylation to nororipavine) by S. cerevisiae expressing cytochrome P450s and CPRs, LC-MS
thebaine [2] = assay: Demethylation of thebaine by new cytochrome P450 fungal and plant homologs co-expressed with CPRs in S. cerevisiae; conditions: 0.5 mM thebaine, SC or DELFT media pH 7, 72 h, 30° C.; co-expressed with Cel_CPR_co, Tp_CPR_5866, Tp_CPR_DN10898 or POR1

B1: P450_DN15259_c0_g1_i7_A: native cytochrome P450 clone from Thamnostylum piriforme (plasmid pEV31541) (protein)
chain: MDNKAILRQAVYSYRYHIGIAAAVAIVCQQIYSRVFRVPKNLRHIPAISYWSQMKALLKKEAITPRTKRLVYPLLSKANGLYLNRMPFDWTVYVANPMIAKTVLFKPEFATKMSLIGSFSDDSAVLQFVGKDNIAVSNGHQWKKQRKIMNPAFHRSMPVALFASLMPKVFCMIDETQENGDSVGAIQLMQALTLEALGKAVFGFDFGGLDDKNSVWVKTYNEVFKAFTDFTVFLPRLNAFLRRVSPPHRSRHREMLKLIGLLDEMVDKKRQALLDAKNKSVEKVPEHEKDLLTLMLEAEMDGEGVWEKEELRHNIGILFVAGHDTTANSLAFAVYNLAVNKDVQDKARKEIIDLLGDEPKDVAPTLDDCKHMDYIDMIIKETLRMNAPANDLLARIASEDLELGGVLIPKGTMVSVDFHALHLHPDLWEDSERFNPQRFQDNGEHSKHEGVTWVPFSGGSRQCIGINFSMMEQRVALSTLLRKYEWELPADSIHRNGLVMDQPFSFAPSSLKIKFKKRY
modifications: Thamnostylum piriforme
**Q.** How did the “thebaine N-demethylation (northebaine), screening of T. piriforme P450 candidates” value (thebaine [1]; 0.1 mM thebaine, non-buffered SC-His-Leu-Ura, with CPRs from C. elegans, G. fujikuroi and S. cerevisiae, 72 h, 30° C.) turn out when B1 was run?
**A.** The value was “identified as a thebaine N-demethylase”.

**Q.** What about the “increase in northebaine titers on increasing thebaine concentration to 0.5 mM” value (thebaine [1]; 0.1 vs 0.5 mM thebaine, pH 7, 72 h, with Cel_CPR_co, CPR_DN5866_c0_g1_Cd9 or CPR_DN10898_c0_g1_1A) of the same molecule?
**A.** The value was 50%.

**Q.** What about the “oripavine N-demethylation (nororipavine)” value (oripavine; detected only when feeding 0.5 mM oripavine, pH 7, 72 h, with Cel_CPR_co, CPR_DN5866_c0_g1_Cd9 or CPR_DN10898_c0_g1_1A) of the same molecule?
**A.** Its value is “able to N-demethylate oripavine”.

**Q.** What about the “nororipavine titers lower than those of northebaine” value (oripavine; thebaine or oripavine fed, pH 7, 72 h) of the same molecule?
**A.** Its value is 20 fold.

B2: LCOR_09548_co: codon-optimized putative cytochrome P450 A0A068S8J3 from Lichtheimia corymbifera (protein, listed as Lichtheimia corymbifera)
chain: MSSLNILSLLDNKHINAFFDNPSRAQSGIIAGSVAIVSLCAAYSLGSRLRGSNNGVPLVPYTFPIIGSTKEYQADPQAFIEKWTAKLGPVFRVHLFGRIHTVVSDRYVREVFLNNDFDFLKGTGKRFDTLLLTDTTLEDVDIEVFRTVVMKHLTKEMKHYTPRVVEHLTAGGDEKLGDATEPKELVHLFPLLQHMVAKASASIFVGTELAADDAVVETCKNIAIDIGSELGPSSYIMDAFPSLARLRMWYIGKYGKAINKHRQHLLHALGPVIDKRLAAAEKGGDWDRPQDILQDIIETINLTLDNPKRHILPVKWLLALFFASIHTTSENSTIVLYRIMQNPEIIDVLLEEQNEILEKHYGTNIDYSDTTKLFTGEVIKEMVKLDSVCREAMRSRNSYLELPHTYVGKSRITLSCGAVIEPGHDVLINMWGNHRDAKIQRDTIGDHHDFKPFRFVGLDRQSTKIGDDFLMFGQGRHACPGRWFAIQEIKTIVSVLIRYYKLTPKGPITFPTHPRMPMPTGEVIIQRRQE
modifications: codon-optimized
**Q.** How did the “nororipavine production when oripavine was administered” value (oripavine; 0.5 mM oripavine, pH 7, 72 h, co-expressed with CPR_DN5866_c0_g1_i1_Cd9, CPR_DN10898_c0_g1_i1_1A or Cel_CPR_co) turn out when B2 was run?
**A.** Its value is “capable of producing nororipavine”.

B3: CYPDN7: cytochrome P450 homolog I1CBZ0 from Rhizopus delemar, codon-optimized (protein)
chain: MALEGALPLFQKRSKSSYIVAAILLITVKQIYSFFRVPTNLRHLPCVSFFAMAKSLLTCEPPYNRFKRITFPAIQEGNGFYVSKIPTGWTVYVANPVAAKQLLLKSNNFPKSHYGLDTIGEKSTAVQFVGRDNVVLSNGEIWKKQRKIMNPVFHRSMPIKTVASLVPLLFSAIEEANGRIMITPKMKDFTLDALGLTIFDFDFKALQGDPDNWTSIYRLITRSIFDPISYVFCALEPLLVYVYPKRRRSVDAVAKINAKFDQVISKKREELQNGIFSNKPDNEKDLVTLMLEAGMQEDVSITNEELRHNMAVLFLAGHDSTSNTLSFCLYHLAKNKRAQQKLREEIINILGDDDIDIVPSLEELKQMKYMNMVIKETLRLGMPLDLLTPRKTVEDTFVADTFIPKDTVIAVDAGALHRDPRSWKDPDEFVPERFEDDGEQNSHEGLTWVPFSNGTRQCIGMNFSLMEQRLTLTMLLRKYEVDLPKDSIHYDHIIYEQPSYVCPESLELIFTKRY
modifications: Rhizopus delemar
**Q.** Which Northebaine production (thebaine [2]) does the source give for B3 here?
**A.** Its Northebaine production is “+”.

B4: Cel_CPR_co: codon-optimized cytochrome P450 reductase from Cunninghamella elegans (protein)
chain: MAQQTPAVIDTLDLILLGSIGLGTIAWFTRRQLSERLFGTGQSNATPKPTTPQAPKRERNFVKVMEQQGRKVIFFYGSQTGTAEDFASRLAKQCSQKYGVSCMTADIEMYDLSYLDTLSEDSLVCFVMATYGEGEPTDNAVDFWEQFITDESPVFSEGGETLENLRYLMFGLGNKTYEHYNAVARILDKKLTGLGAKRIGERGEGDDDGSLEEDFLAWQESMWPTFCDALGVDENNAQQGPRQASYSVDELKEEYKNDDVYFGELGTKSKDSSRVVYDAKRPYNAPITTRELFNSSERHCLHVDIDISGTNLSYQTGDHVAMWPTNNEDEVLRLANILGLQDKLDNVISVKAIDPAAPKQHPFPVPTTYRAIFRHYIDICAPASRQSLMSFVEFAPTDSAKDLLKLLATDKDEYRLKVGEAVRNLGEVLELVSGNDKDTQPGSFTSVPFDLIVETIPRLQPRYYSISSSSKENSSIISATCVTLAYQPDPTPDRTVYGVNTNFLYRIHTQSSDNDIQGLPKYDLAGPRKAFLNEQGQSHKLPIHIRRSQFKLPRNTSCPVIMIGPGTGVAPFRGFVRERALQKKEGKSVGPTVLFFGNRHSEHDFLYSDEWPELFNTLGDDSKLITAFSRETEHKVYVQHRLEENGKDIWQLLEKGAYIYVCGDARNMARDVNQTFVNLAMEYGEKTEQKALDYVKSLRNTGRYQEDVWS
modifications: codon-optimized; Cunninghamella elegans
**Q.** How did the “support of N-demethylase activity of P450_DN15259_c0_g1_i7_A by CPR (northebaine)” value (“support” below) (thebaine [1]; 0.1 mM thebaine, 30° C.) turn out when B4 was run?
**A.** The value was “found to support N-demethylase activity”.

B5: P450_DN12791_c0_g1_C: native cytochrome P450 clone from Thamnostylum piriforme (plasmid pEV31522) (protein)
chain: MAILQNLVLQSDQRHLGVVTAAVFLSAYALYRHESKKELGNECPTVPYTNPMFGSTDEYRKNPAAFVEKWSAALGPVFRVHIFGRMQTVVSGRYVREVLFNDNFSFVEGIRTRFDLRLLTGIPNSHLNDKDVREVVVKSLTAQMKKYTPRAVHYLSVGLQEALGDLKDPRTLDNLFLTVQNMVAKASASIFVGEELCNNIELVDTFKHVTSDIGSEIRLDNTWLEFFKTINQIRMWYVGKHSPRVTKHRRQLIQAMAPEIDRRLQGLAGNDPSWTRPEDILQEIMENYPSPSTVPADIYTYYANWMIVLIFASVHTTTEHATIVLYRLLQQPELIDELLQEQKEALGQGTVFTGEVIRKLVKLDSVCRESLRIKNEYFGLPHRNMSHENISLSNGVVIKPGDNVMLNVWTNHHDSDLQKDVHGNHDKFEPFRYVNADRPATKIGDDYLIFGEGKHACPGRWFALQEIKTIVSVLIRDYTLTPCGPIVFPSGTSTGIPSGEVTIQRKSEV
modifications: Thamnostylum piriforme
**Q.** How did the nororipavine titers (oripavine; 0.5 mM oripavine, pH 7, co-expressed with Cel_CPR_co, 72 h) turn out when B5 was run?
**A.** The nororipavine titers was “highest nororipavine titers”.

**Q.** What about the “oripavine N-demethylation (nororipavine), screening of T. piriforme P450 candidates” value (oripavine; 0.5 mM oripavine, pH 7, with CPRs from C. elegans, G. fujikuroi and S. cerevisiae, 72 h) of the same molecule?
**A.** The value was “identified as an oripavine N-demethylase”.

B6: CPR_DN5866_c0_g1_Cd9: native cytochrome P450 reductase clone from T. piriforme, day 9 cDNA (pEV31725) (protein)
chain: MAQSSPALLDSLDIVFLGTIGLGTIAWFARRQIAERIFGSKDDANKNVGNGNAPTAPKRERNFVKVMQEQGRKVIFFYGSQTGTAEDYASRLAKECSQKYGVSCMTADIELYDLTYLDTVPEDFLVFFIMATYGEGEPTDNAVDFWEQLTEEEPQFSEGDTLGNLRYVVFGLGNKTYEHYNEVARRMDKLLTKLGAKRIGERGEGDDDASLEEDFLAWQDSMWPAFCDALGVDESNGSSGPRQAMYAVEELEGQEAVYLGELGEKPKEGVKVVYDAKRPYNAPLVSQDLFKNTDRHCLHIDIDVSDSNLSYQTGDHIAIWPTNSDDEVARLASLLGLTDKLDTSVMVKAIDSTASKQYPFPVPATYRSIFRHYLDICAPASRQTLMSLVEYAPTEASKEALRLLSKDKDEYRLKVGEAVRNLGEVLELAAGADARPGLFSTVPFDLIVESVSRLQPRYYSISSSAKESPKVIAVTAVTLTYNPDPTPERTVYGVNTNYLWQIHAAKHNVNDGQRYPTYDLAGPRNALQGAKVPVHIRRSQFKLPRNPTVPVIMVGPGTGVAPFRGFVRERAAQKTDGKPVGPTLLFFGCRNSQQDFLYKDEWPELFATLGDESRIVTAFSRETPQKVYVQHRLQENGEELWNLLQKGAYIYVCGDAKNMARDVNQTFVNFAIEFGGQTEEKAHDYVKNLRNSGRYQEDVWS
modifications: Thamnostylum piriforme
**Q.** For B6, which “support” value (thebaine [1]; 0.1 mM thebaine, 30° C.) is on record?
**A.** Its value is “yielded more northebaine”.

B7: CPR_DN10898_c0_g1_1A: native cytochrome P450 reductase clone from T. piriforme (pEV31730) (protein)
chain: MSKKPTTFAISPLDLLLLGTLGIGALLYITRKLRAAPPPAAGDAARPSDKAPSNKPERNFVKLMEQQKRRVIFFYGSQTGTAEDYASRLAKESSQKYGVSSMAADIELYDLSYLDTVPEDKLVVFVMATYGEGEPTDNAVDFWETLTDEAPMFSLGEELAPLRNLNYIVFGLGNKTYEHYNEVARVLDKRLAALGATRHGVRGEGDDDASLEEDFLAWQEDMWPAFCAALNVDESNAQAGPRQAMYGVKELEGHDENGLFLGELGEWLQPEQLQKQTAVHDAKHPYLAPIAASRDLFSHAADRHCLHLEVDIASSNLTYQTGDHIAIWPTNNDVEVLRLATVLGLADKLDTAIMVKALDSAASKKYPFPVPTTYRAAFKHYLDICSPASRQTLISLVDYAPTASSKDALHKLATDKDAYKTQVSEAARNLAEVLELCQDDEGTTAAPGFFSTVPFDLIVESVSRLQPRYYSISSSSLTSPKSVAVTAVTLSYQPSTTKSRTVYGVNTNYLWRIHAPHDASVPAYDLDGPRNTLQGKKVPVHIRRSTFKLPRNTKLPVIMVGPGTGVAPFRGFIHDRVHQKQSGKEVGPTVLFYGCRHSKQDFLYAEEWPALFEALGEGSQLITAFSRESAQKVYVQHRLKEHGEQMWKYIEQGAYIYVCGDAKNMARDVQQTFIEFAQALGNKTESQAQDYVKNLRNTGRYQEDVWS
modifications: Thamnostylum piriforme
**Q.** With B7 as the molecule, how does the “support” value (thebaine [1]; 0.1 mM thebaine, 30° C.) read?
**A.** Its value is “yielded more northebaine”.
